Experimental data as given in US20230220589A1.
Each block holds one binder with its values, some of them ahead of it.

Experiments:
[1] = molecular target: M44-modified L NTAA target peptides (M44-L-P2-peptide); assay: Gini coefficient of P1 selectivity from multiplex encoding heatmap
[2] = molecular target: M44-modified L NTAA target peptides (M44-L-P2-peptide); assay: Gini coefficient of P2 tolerance from multiplex encoding heatmap
[3] = molecular target: M44-modified F NTAA target peptides (M44-F-P2-peptide); assay: Gini coefficient of P1 selectivity from multiplex encoding heatmap
[4] = molecular target: M44-modified F NTAA target peptides (M44-F-P2-peptide); assay: Gini coefficient of P2 tolerance from multiplex encoding heatmap
[5] = molecular target: M44-modified A NTAA target peptides (M44-A-P2-peptide); assay: Gini coefficient of P1 selectivity from multiplex encoding heatmap
[6] = molecular target: M44-modified A NTAA target peptides (M44-A-P2-peptide); assay: Gini coefficient of P2 tolerance from multiplex encoding heatmap
[7] = molecular target: M44-modified I NTAA target peptides (M44-I-P2-peptide); assay: Gini coefficient of P1 selectivity from multiplex encoding heatmap
[8] = molecular target: M44-modified I NTAA target peptides (M44-I-P2-peptide); assay: Gini coefficient of P2 tolerance from multiplex encoding heatmap
[9] = molecular target: M48-modified F NTAA target peptides (M48-F-P2-peptide); assay: Gini coefficient of P1 selectivity from multiplex encoding heatmap
[10] = molecular target: M48-modified F NTAA target peptides (M48-F-P2-peptide); assay: Gini coefficient of P2 tolerance from multiplex encoding heatmap

P1 score [1]: 0.403
B1: SEQ ID NO 38 (designed binder, not shown: small tags and cut ends; large carriers)
chain: QVSVQPNFQQDKFLGRWFPAGFASNSSWDREKPAALSLAKMVVAPATDGGLNWTETYLRKNQCETTTHLLQPAGSLGSYSYRSPHFGSTRSLSVVETDYDQYALFYSQGSKGPGEDHRGAWLLSRTQTPRAELKEKFTAFSKAQGFTEDTIVFLPQTDKCMTEQ
P2 score [2]: 0.251

P1 score [3]: 0.408
B2: SEQ ID NO 43 (designed binder, not shown: small tags and cut ends; large carriers)
chain: TVPDRSEIAGKWYVVALASNTEFVLREKDWLKLAMARISFLGEDELKVSMTTPGPNGCTKWERTLKKTSDDGEVYSSPRAKEKVEVLDTDYKSYAVIYATAVKDGRTLHEMWLYSRSPEVSPAATAIFRKLAGERNYTDEMVAMLPRQEECTVDEV
P2 score [4]: 0.359

P1 score [5]: 0.173
B3: SEQ ID NO 47 (designed binder, not shown: small tags and cut ends; large carriers)
chain: TVPDRSEIAGKWYVVALASNTEFFLREKDNFKMAMARISFLGEDELKVSEAVPTPNGCFKAEFTGKKTSDDGEVYWSQTAKYKVEVLDTDYKSYAVIYATNVKDGRTVHAMNLYSRSPEVSPAATAIFRKLAGERNYTDEMVAMLPRQEECTVDEV
P2 score [6]: 0.466

P1 score [1]: 0.501
B4: SEQ ID NO 26 (designed binder, not shown: small tags and cut ends; large carriers)
chain: QVSVQPNFQQDKFLGRWFAAGYASNSSWRRERSAALSMAKVVVAPATDGGLNWTETILRKNQCETATNLLQPAGSLGSYSIRSPHAGSTSSMSVVETDYDQYALLYAQGSKGPGEDFRLAILLSRTQTPRAELKEKFTAFSKAQGFTEDTIVFLPQTDKCMTEQ
P2 score [2]: 0.498

P1 score [7]: 0.326
B5: SEQ ID NO 36 (designed binder, not shown: small tags and cut ends; large carriers)
chain: QDSTQNLIPAPPLISVPLQPGFWTERFQGRWFIVGAAGNAVQKERQSRVTMGSVIWELQEDNSYNLTFISVRGQGCRYWIETWVPSSRPGQFTLGNIHSYPQIQSADVQVADTDYDQFAMVFVQYTSENKQYFMVRLLGRTKGLSDELKERFVSFAKSLGLKDNNIVFSVPTDQCIDN
P2 score [8]: 0.197

P1 score [3]: 0.433
B6: SEQ ID NO 30 (designed binder, not shown: small tags and cut ends; large carriers)
chain: QDSTQNLIPAPPLISVPLQPGFWTERFQGRWFNVGIAGNAVQKERQSRFTMLSLISELQEDNSYNWTLISVRGQGCRYRILTWVPSSRPGQFTLGNIHSYPQIQSLDVQVADTDYDQFAMVFAQGTSENKQYFEVILMGRTKGLSDELKERFVSFAKSLGLKDNNIVFSVPTDQCIDN
P2 score [4]: 0.378

P1 score [1]: 0.286
B7: SEQ ID NO 39 (designed binder, not shown: small tags and cut ends; large carriers)
chain: QVSVQPNFQQDKFLGRWFLAGLASNSSWAREKIAALSDAKFVVAPATDGGLNGTVTVLRKNQCETATGLLQPAGSLGSYSWRSPHDGSTLSLSVVETDYDQYALVYEQGSKGPGEDLRIAALWSRTQTPRAELKEKFTAFSKAQGFTEDTIVFLPQTDKCMTEQ
P2 score [2]: 0.426

P1 score [1]: 0.452
B8: SEQ ID NO 24 (designed binder, not shown: small tags and cut ends; large carriers)
chain: QVSVQPNFQQDKFLGRWFYAGLASNSSWLREKCAALSSAKAVVAPATDGGLNVTETWLRKNQCETGTELLQPAGSLGSYSFRSPHRGSTLSLSVVETDYDQYALLYRQGSKGPGEDERRALLMSRTQTPRAELKEKFTAFSKAQGFTEDTIVFLPQTDKCMTEQ
P2 score [2]: 0.375

P1 score [1]: 0.418
B9: SEQ ID NO 22 (designed binder, not shown: small tags and cut ends; large carriers)
chain: QVSVQPNFQQDKFLGRWFTAGLASNSSWLREKFAALSHAKTVVAPATDGGLNLTVTVLRKNQCETSTLLLQPAGSLGSYSRRSPHVGSTGSVSVVETDYDQYALIYDQGSKGPGEDWRIAELVSRTQTPRAELKEKFTAFSKAQGFTEDTIVFLPQTDKCMTEQ
P2 score [2]: 0.431

P1 score [1]: 0.478
B10: SEQ ID NO 25 (designed binder, not shown: small tags and cut ends; large carriers)
chain: QVSVQPNFQQDKFLGRWFIAGLASNSSWVREKSAALSQAKVVVAPATDGGLNVTVTVLRKNQCETYTVLLQPAGSLGSYSSRSPHFGSTVSLSVVETDYDQYALWYAQGSKGPGEDMRHAELWSRTQTPRAELKEKFTAFSKAQGFTEDTIVFLPQTDKCMTEQ
P2 score [2]: 0.543

P1 score [3]: 0.241
B11: SEQ ID NO 44 (designed binder, not shown: small tags and cut ends; large carriers)
chain: TVPDRSEIAGKWYVVALASNTEFFLREKDRIKTAMARISFLGEDELKVSLARPAPNGCHKAEWTFKKTSDDGEVYTSFLAKFKVEVLDTDYKSYAVIYATPVKDGRTRHEMLLYSRSPEVSPAATAIFRKLAGERNYTDEMVAMLPRQEECTVDEV
P2 score [4]: 0.485

P1 score [1]: 0.225
B12: SEQ ID NO 46 (designed binder, not shown: small tags and cut ends; large carriers)
chain: TVPDRSEIAGKWYVVALASNTEFHLREKDNLKVAMARISFLGEDELKVSEAVPTPNGCMKHESTWKKTSDDGEVYRSRKAKQKVEVLDTDYKSYAVIYATRVKDGRTHHWMLLYSRSPEVSPAATAIFRKLAGERNYTDEMVAMLPRQEECTVDEV
P2 score [2]: 0.289

P1 score [9]: 0.189
B13: SEQ ID NO 29 (designed binder, not shown: small tags and cut ends; large carriers)
chain: QVSVQPNFQQDKFLGRWFVAGVASNSSWMREKVAALSGAKVVVAPATDGGLNYTETWLRKNQCETWTGLLQPAGSLGSYSQRSPHGGSTNSLSVVETDYDQYALLYVQGSKGPGEDPRVAVLWSRTQTPRAELKEKFTAFSKAQGFTEDTIVFLPQTDKCMTEQ
P2 score [10]: 0.387

P1 score [9]: 0.392
B14: SEQ ID NO 28 (designed binder, not shown: small tags and cut ends; large carriers)
chain: QVSVQPNFQQDKFLGRWFLAGMASNSSWMREKFAALSVAKFVVAPATDGGLNTTTTLLRKNQCETFTRLLQPAGSLGSYSSRSPHLGSTVSGSVVETDYDQYALLYEQGSKGPGEDGRKAWLGSRTQTPRAELKEKFTAFSKAQGFTEDTIVFLPQTDKCMTEQ
P2 score [10]: 0.318

P1 score [7]: 0.357
B15: SEQ ID NO 40 (designed binder, not shown: small tags and cut ends; large carriers)
chain: QVSVQPNFQQDKFLGRWFYAGLASNSSWIREKYAALSLAKSVVAPATDGGLNWTETSLRKNQCETGTVLLQPAGSLGSYSLRSPHHGSTISVSVVETDYDQYALVYRQGSKGPGEDSRRAILMSRTQTPRAELTEKFTAFSKAQGFTEDTIVFLPQTDKCMTEQ
P2 score [8]: 0.144

P1 score [7]: 0.323
B16: SEQ ID NO 41 (designed binder, not shown: small tags and cut ends; large carriers)
chain: QVSVQPNFQQDKFLGRWFYAGMASNSSWLREKSAALSAAKFVVAPATDGGLNFTETFLRKNQCETTTILLQPAGSLGSYSVRSPHVGSTVSISVVETDYDQYALFYVQGSKGPGEDNRMALLGSRTQTPRAELKEKFTAFSKAQGFTEDTIVFLPQTDKCMTEQ
P2 score [8]: 0.217

P1 score [5]: 0.319
B17: SEQ ID NO 37 (designed binder, not shown: small tags and cut ends; large carriers)
chain: QDSTQNLIPAPPLISVPLQPGFWTERFQGRWFLVGLAGNAVQKERQSRRTMSSLILELQEDNSYNETWINVRGQGCRYRIGTVVPSSRPGQFTLGNIHSYPQIQSLDVQVADTDYDQFAMVFTQFTSENKQYFYVRLMGRTKGLSDELKERFVSFAKSLGLKDNNIVFSVPTDQCIDN
P2 score [6]: 0.195

P1 score [3]: 0.173
B18: SEQ ID NO 32 (designed binder, not shown: small tags and cut ends; large carriers)
chain: QDSTQNLIPAPPLISVPLQPGFWTERFQGRWFSVGMAGNAVQKERQSRFTMGSCIMELQEDNSYNLTFIGVRGQGCRYRILTWVPSSRPGQFTLGNIHSYPQIQSADVQVADTDYDQFAMVFWQTTSENKQYFAVELWGRTKGLSDELKERFVSFAKSLGLKDNNIVFSVPTDQCIDN
P2 score [4]: 0.379

P1 score [3]: 0.387
B19: SEQ ID NO 23 (designed binder, not shown: small tags and cut ends; large carriers)
chain: QVSVQPNFQQDKFLGRWFLAGAASNSSWLREKNAALSYAKLVVAPATDGGLNSTVTRLRKNQCETETRLLQPAGSLGSYSWRSPHLGSTLSLSVVETDYDQYALVYAQGSKGPGEDVRGAELLSRTQTPRAELKEKFTAFSKAQGFTEDTIVFLPQTDKCMTEQ
P2 score [4]: 0.456
